According to patent US20250326812A1 (CUGENE, published 2025):
Where no end group is shown, it is not given here.

B1: L02 (peptide)
peptide: EISQASHYFERHL
modifications: also: biotinylated, site not given here
notes: also called IL-2Rβ loop 2 peptide (linear)
B2: Blocking peptide L03 (cyclized IL-2Rβ loop 2) (peptide)
peptide: CEISQASHYFERHLC
modifications: also: biotinylated, position not given here, cyclized, mode and sites not given here
notes: Synthetic peptide

Molecular target: T1, P-0153, an IL-15/IL-15RαSushi+ Fc fusion protein
T1 construct: Heterodimeric knob/hole Fc fusion; It served as the plate-coated source of IL-15 in the peptide ELISA
T1 sequence (chain, as listed by the source, chain 1 of 2): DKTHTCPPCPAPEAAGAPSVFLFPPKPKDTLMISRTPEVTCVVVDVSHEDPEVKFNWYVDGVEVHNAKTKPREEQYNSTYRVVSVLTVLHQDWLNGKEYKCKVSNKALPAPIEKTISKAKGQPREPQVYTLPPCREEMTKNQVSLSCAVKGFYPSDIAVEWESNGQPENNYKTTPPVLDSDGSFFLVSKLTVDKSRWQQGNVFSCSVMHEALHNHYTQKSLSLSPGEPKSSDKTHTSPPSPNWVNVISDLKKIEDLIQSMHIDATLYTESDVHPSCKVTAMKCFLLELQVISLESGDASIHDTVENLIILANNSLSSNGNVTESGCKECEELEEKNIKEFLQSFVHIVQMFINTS
T1 sequence (chain, as listed by the source, chain 2 of 2): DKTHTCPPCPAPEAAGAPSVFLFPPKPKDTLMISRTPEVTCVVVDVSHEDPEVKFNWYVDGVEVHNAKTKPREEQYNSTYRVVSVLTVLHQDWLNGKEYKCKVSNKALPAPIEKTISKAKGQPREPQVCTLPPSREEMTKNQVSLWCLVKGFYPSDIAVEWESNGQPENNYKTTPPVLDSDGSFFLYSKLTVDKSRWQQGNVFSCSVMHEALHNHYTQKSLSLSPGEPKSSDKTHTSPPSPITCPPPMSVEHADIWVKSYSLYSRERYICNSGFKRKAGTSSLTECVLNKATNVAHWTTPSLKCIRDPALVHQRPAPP
Test: ELISA; P-0153 coated on the plate at 1 ug/well, biotinylated peptide in 3-fold dilutions from 100 uM, streptavidin-HRP, TMB, OD450
Description: The five peptides, L01 to L05 (SEQ ID NO: 97-101) in Table 13 were synthesized and assessed for their binding to IL-15 in ELISA format. […] Streptavidin-HRP complex at the manufacturer's recommended concentration was added and signal was developed by TMB substrate.

Binder | binding result | EC50 (read off the curve)
LGAPDSQKLTTVDIVGGGGGGGGEISQASHYFERHL (also: biotinylated, site not given here) [L04] | binds | –
B1 | binds | –
B2 | – | ~8 µM
